Non-standard residues stand in square brackets, D forms with d. No end group written: not given here. pY = N[C@@H](Cc1ccc(OP(=O)(O)O)cc1)C(=O)O
Columns and labels:
[1] = molecular target: 5-FAM-SMG9 peptide (human) (UniProt Q9H0W8); test: fluorescence polarisation
OGT = molecular target: T1, OGT (Homo sapiens, UniProt O15294); test: Competitive fluorescence polarization; conditions: FP competition with 5-FAM-SMG9 for OGT binding, n=3
T1 sequence (O15294 1-1046): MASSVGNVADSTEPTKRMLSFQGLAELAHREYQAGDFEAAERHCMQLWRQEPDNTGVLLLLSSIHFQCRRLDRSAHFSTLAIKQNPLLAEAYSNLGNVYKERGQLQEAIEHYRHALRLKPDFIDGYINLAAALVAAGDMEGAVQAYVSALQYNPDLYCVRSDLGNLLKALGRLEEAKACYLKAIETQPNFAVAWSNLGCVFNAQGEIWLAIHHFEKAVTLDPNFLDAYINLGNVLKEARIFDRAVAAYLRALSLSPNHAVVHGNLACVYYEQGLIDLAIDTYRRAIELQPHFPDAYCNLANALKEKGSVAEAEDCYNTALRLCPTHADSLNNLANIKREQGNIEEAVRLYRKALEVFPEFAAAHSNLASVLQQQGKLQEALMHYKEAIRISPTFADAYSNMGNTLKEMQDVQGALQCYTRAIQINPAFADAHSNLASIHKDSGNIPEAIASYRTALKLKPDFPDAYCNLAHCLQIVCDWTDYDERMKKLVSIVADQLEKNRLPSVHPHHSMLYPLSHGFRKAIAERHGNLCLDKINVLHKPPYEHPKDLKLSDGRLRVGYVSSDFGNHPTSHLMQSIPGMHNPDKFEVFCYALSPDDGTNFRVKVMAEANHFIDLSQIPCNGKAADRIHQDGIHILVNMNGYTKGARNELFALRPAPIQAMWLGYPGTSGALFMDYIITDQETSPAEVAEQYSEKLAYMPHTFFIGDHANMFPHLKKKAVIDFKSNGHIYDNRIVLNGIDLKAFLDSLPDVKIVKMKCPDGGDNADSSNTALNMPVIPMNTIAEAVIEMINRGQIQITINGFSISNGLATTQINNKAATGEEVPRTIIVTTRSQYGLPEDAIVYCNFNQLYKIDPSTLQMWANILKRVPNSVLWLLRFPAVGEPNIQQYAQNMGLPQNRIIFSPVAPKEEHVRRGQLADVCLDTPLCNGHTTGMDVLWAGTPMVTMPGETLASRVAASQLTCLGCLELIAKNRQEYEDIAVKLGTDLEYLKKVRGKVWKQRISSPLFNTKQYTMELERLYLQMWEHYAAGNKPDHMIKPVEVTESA

| fold shift of EC50 against WT OGT [1] | Substance | peptide binding to OGT (OGT) |
| --- | --- | --- |
| > 10 fold | OGT I734R (enzyme) |  |
| > 10 fold | OGT F723E (enzyme) |  |
|  | SMG9 pY147: phosphorylated SMG9 peptide (pY147) (QRPTQPV[pY]QIQNRGMG) | disrupted peptide binding, to a similar degree as Y147F |
| > 10 fold | OGT N791A (enzyme) |  |
